Measurements from US20220119522A1 (DENALI THERAPEUTICS, published 2022).
Like-named read-outs stand apart in the source and are kept apart here.

T1: human soluble TREM2 (sTREM2) (human, UniProt Q9NZC2 19-157, limits assumed)
T1 construct: Native shed sTREM2; also called sTREM2 in Human CSF; sTREM2 in huTrem2 KI mouse plasma
T1 sequence: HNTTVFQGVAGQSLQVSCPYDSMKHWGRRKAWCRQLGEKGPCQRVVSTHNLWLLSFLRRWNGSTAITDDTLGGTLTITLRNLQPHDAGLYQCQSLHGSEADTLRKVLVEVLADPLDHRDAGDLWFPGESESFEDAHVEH

T2: His-tagged human TREM2 ECD (human, UniProt Q9NZC2 19-172)
T2 construct: Biacore and HDX say only recombinant human TREM2 (ECD); also called recombinant human TREM2; hTREM2
T2 sequence: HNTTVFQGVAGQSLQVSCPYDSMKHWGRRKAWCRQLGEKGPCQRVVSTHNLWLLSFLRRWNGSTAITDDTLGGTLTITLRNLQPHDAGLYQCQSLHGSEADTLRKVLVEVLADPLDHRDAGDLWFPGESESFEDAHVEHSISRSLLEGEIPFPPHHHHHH

T3: human TREM2 on the cell surface (human, UniProt Q9NZC2 19-230)
T3 construct: also called surface TREM2; TREM2 expressed in HEK293-H6 cells
T3 sequence: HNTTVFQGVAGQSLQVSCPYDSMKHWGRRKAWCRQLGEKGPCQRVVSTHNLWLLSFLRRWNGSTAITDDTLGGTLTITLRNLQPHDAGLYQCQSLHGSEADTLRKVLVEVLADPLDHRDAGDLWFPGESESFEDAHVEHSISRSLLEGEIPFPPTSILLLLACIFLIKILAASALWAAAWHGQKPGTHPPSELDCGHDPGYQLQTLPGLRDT


Tests used:
[1] = target: T1, human soluble TREM2 (sTREM2); test: MSD assay: sTREM2 captured from healthy human CSF, sulfo-tagged antibody titrated
Procedure: (§1) The affinity of anti-TREM2 antibodies to human TREM2 and cynomolgus TREM2 were measured by Biacore (described in Example 1). The potency of anti-TREM2 antibodies were measured in healthy human volunteer CSF samples (Innovative Research) and healthy cynomolgus monkey CSF samples (Worldwide Primates), by MSD assay. The potency of each antibody was determined by its EC50. Briefly, MSD GOLD 96-well small spot streptavidin plates (MSD, Cat. No. L45SA) coated with capture antibody (biotinylated goat anti-human TREM2, R&D Systems, Cat. No. BAF1828) was incubated with biofluid samples diluted 1:3 in Assay Buffer (25% (v/v) MSD Blocker A (MSD, Cat. No. R93BA-A), 75% (v/v) TBST) for one hour at room temperature. After rinsing the wells with TBST, sulfo-tagged anti-TREM2 antibody was added in a serial dilution (4×dilution over 11 points) to the wells of the plate and incubated for one hour at room temperature. The wells were washed with TBST, and MSD Read Buffer (MSD, Cat. No. R92TC-3) was added to the wells. Signal from the samples were measured using an MSD Meso Sector 5600 device. EC50 values for each antibody was determined by four-parameter variable slope non-linear regression. The variable regions of reference antibody #1 are represented by SEQ ID NOS:344 and 345. The variable regions of reference antibody #2 are represented by SEQ ID NOS:346 and 347. The variable regions of reference antibody #3 are represented by SEQ ID NOS:348 and 349.

[2] = target: T2, His-tagged human TREM2 ECD; test: SPR (Biacore)
Procedure: (§2) Surface plasmon resonance (Biacore™ 8K instrument) was used to measure anti-TREM2 antibody affinities for human and cynomolgus TREM2 ECD. Anti-TREM2 antibodies were captured using Human Fab Capture Kit (GE Healthcare Life Sciences, Catalog No. 28958325) on a Biacore Series S CM5 sensor chip (GE Healthcare Life Sciences, Catalog No. 29149604). Serial 3-fold dilutions of recombinant human or cynomolgus TREM2 were injected at a flow rate of 30 μL/min. Antibody binding was monitored for 300 seconds, followed by monitoring of antibody dissociation for 600+seconds in HBS-EP+ running buffer (GE Healthcare Life Sciences, Catalog No. BR100669). The binding response was corrected by subtracting the RU value from a blank flow cell. A 1:1 Languir model of simultaneous fitting of kₒₙ and koff was used for kinetics analysis.
(§3) Sequence optimization was conducted by searching within CDR sequences for residues that are susceptible to chemical modification (e.g., asparagine deamidation motifs (NG), aspartic acid isomerization motifs (DS), and potential oxidation residues (tryptophan (W) and methionine (M)) and making amino acid substitutions with conservative and germline residues to remove such sequence liabilities. Humanized and sequence-optimized variants of anti-TREM2 antibodies were then analyzed for binding kinetics using Biacore and dose-titrated cell binding to HEK293-H6 cells (see, Example 1 for representative protocols).

[3] = target: T2, His-tagged human TREM2 ECD; test: SPR (Biacore); remark: listed apart in the source
Procedure: as §2, with “analysis. […]” for “analysis.”

[4] = target: T4, recombinant cynomolgus TREM2 ECD (cynomolgus); test: SPR (Biacore)
T4 construct: extracellular domain; also called cyno TREM2
Procedure: as §2, with “analysis. […]” for “analysis.”

[5] = target: T3, human TREM2 on the cell surface; test: flow cytometry, dose-titrated binding to HEK293-H6 cells
Procedure: After incubation, the cells were centrifuged and washed in FACS buffer (PBS+0.5% BSA) twice. Mixed cells were resuspended in FACS buffer with human Trustain FcX solution (Biolegend, Catalog No. 422302) at a density of 10⁶/mL per cell line. The mixed cell lines were seeded at 200,000 cells per well in a 96-well round-bottom plate and incubated for 20 minutes at room temperature. After incubation, the cells were centrifuged and incubated with anti-TREM2 antibodies of about 0-200 nM dose titration for 45 minutes on ice. After incubation, the cells were centrifuged and washed with FACS buffer three times. […] After incubation, the cells were washed with FACS buffer three times, resuspended in 100 μL of FACS buffer, and analyzed by flow cytometry (BD FACSCanto II, San Jose, Calif.), for which 30,000 events were obtained for each sample. Mean fluorescence intensity per cells were calculated by FlowJo software and used for generating dose response binding curve.
as §3

[6] = target: T5, cynomolgus soluble TREM2 (sTREM2) (cynomolgus); test: MSD assay: sTREM2 captured from healthy cynomolgus CSF, sulfo-tagged antibody titrated
T5 construct: also called sTREM2 in Cyno CSF
Procedure: as §1

| Binder | EC50 [1] [nM] | Kd [2] [nM] | Kd [3] [nM] | Kd [4] [nM] | EC50 [5] [nM] | EC50 [6] [nM] |
| --- | --- | --- | --- | --- | --- | --- |
| CL0020123-5 (antibody, V domains shown, Humanized variant of CL0020123 (hVH QGES/2 m, Vk graft); also called Clone CL0020123-5) VH: QVQLVQSGAEVKKPGASVKVSCKASGFSIEDFYIHWVRQAPGQGLEWMGWIDPEQGESKYAPKFQGRATITADTSTSTAYMELSSLRSEDTAVYYCHADHGNYGSTMDYWGQGTLVTVSS VL: DIQMTQSPSSLSASVGDRVTITCHASQHINVWLSWYQQKPGKAPKLLIYKASNLHTGVPSRFSGSGSGTDFTLTISSLQPEDFATYYCQQGQTYPRTFGQGTKVEIK | 1 | 0.44 | 0.63 | 9.3 | 0.37 | 49.4 |
| CL0020123-7 (antibody, V domains shown, Humanized variant of CL0020123 (hVH NGES/1 m, Vk graft); also called Clone CL0020123-7) VH: QVQLVQSGAEVKKPGASVKVSCKASGFSIEDFYIHWVRQAPGQGLEWMGWIDPENGESKYAPKFQGRVTITADTSTSTAYMELSSLRSEDTAVYYCHADHGNYGSTMDYWGQGTLVTVSS VL: DIQMTQSPSSLSASVGDRVTITCHASQHINVWLSWYQQKPGKAPKLLIYKASNLHTGVPSRFSGSGSGTDFTLTISSLQPEDFATYYCQQGQTYPRTFGQGTKVEIK | 0.54 | 0.15 | 0.08 | 9.4 | 0.19 | 16.9 |
| Reference antibody #3 (antibody, V domains shown) VH: QVQLVQSGAEVKKPGASVKVSCKASGYAFSSQWMNWVRQAPGQRLEWIGRIYPGGGDTNYAGKFQGRVTITADTSASTAYMELSSLRSEDTAVYYCARLLRNQPGESYAMDYWGQGTLVTVSS VL: DVVMTQSPDSLAVSLGERATINCRSSQSLVHSNRYTYLHWYQQKPGQSPKLLIYKVSNRFSGVPDRFSGSGSGTDFTLKISRVEAEDVGVYYCSQSTRVPYTFGQGTKLEIK | 7.25 | – | 8.7 | 9.2 | – | 33.7 |
| CL0020188-4 (antibody, V domains shown, Humanized variant of CL0020188 (hVH NG/3 m, hVL TG/graft); also called Clone CL0020188-4) VH: EVQLVESGGGLVQPGGSLRLSCAGSGFTFTDFYMSWVRQAPGKGPEWLSVIRNKANGYTAGYNPSVKGRFTISRDNSKNTLYLQMNSLRAEDTAVYYCARLTYGFDYWGQGTLVTVSS VL: DIVMTQTPLSLPVTPGEPASISCQSSKSLLHSTGKTYLNWYLQKPGQSPQLLIYWMSTRASGVPDRFSGSGSGTDFTLKISRVEAEDVGVYYCQQFLEYPFTFGQGTKVEIK | 0.29 | 4.8 | 1.4 | 1.5 | 0.44 | 0.28 |
| CL0020188-7 (antibody, V domains shown, Humanized variant of CL0020188 (hVH NA/graft, hVL TG/graft); also called Clone CL0020188-7) VH: EVQLVESGGGLVQPGGSLRLSCAASGFTFTDFYMSWVRQAPGKGLEWVSVIRNKANAYTAGYNPSVKGRFTISRDNSKNTLYLQMNSLRAEDTAVYYCARLTYGFDYWGQGTLVTVSS VL: DIVMTQTPLSLPVTPGEPASISCQSSKSLLHSTGKTYLNWYLQKPGQSPQLLIYWMSTRASGVPDRFSGSGSGTDFTLKISRVEAEDVGVYYCQQFLEYPFTFGQGTKVEIK | 0.75 | 10 | 3.3 | 2.8 | 0.68 | 0.72 |
| Reference antibody #2 (antibody, V domains shown) VH: EVQLVQSGAEVKKPGESLKISCKGSGYSFTSYWIAWVRQMPGKGLEWMGIIYPGDSDTRYSPSFQGQVTISADKSISTAYLQWSSLKASDTAMYFCARQRTFYYDSSDYFDYWGQGTLVTVSS VL: DIQMTQSPSSVSASVGDRVTITCRASQGISSWLAWYQQKPGKAPKLLIYAASSLQNGVPSRFSGSGSGTDFTLTISSLQPEDFATYFCQQADSFPRTFGQGTKLEIK | 7.4 | – | 4.3 | 9.2 | – | 6.5 |
